Experimental data: patent US11541126B1, “Anti-ASGR1 antibody TLR8 agonist comprising conjugates and uses thereof” (Silverback Therapeutics, Inc., priority 2020, dated 2023)

T1: rat CLEC10A ECD (Rattus norvegicus, UniProt P49301)
T1 construct: His-tagged rat CLEC10A ECD (R&D Systems) was immobilized to OCTET® Penta-His biosensors; purchased R&D Systems
T1 sequence (P49301 59-306 limits assumed): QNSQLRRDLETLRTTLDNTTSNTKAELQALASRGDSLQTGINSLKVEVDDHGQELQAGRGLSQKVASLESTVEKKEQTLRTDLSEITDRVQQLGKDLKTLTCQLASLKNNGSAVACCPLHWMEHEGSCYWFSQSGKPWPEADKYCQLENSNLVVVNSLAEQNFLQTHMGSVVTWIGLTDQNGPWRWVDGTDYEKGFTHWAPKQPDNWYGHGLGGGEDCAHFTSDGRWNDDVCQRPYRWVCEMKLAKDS

T2: rat ASGR1 (Rattus norvegicus, UniProt P02706)
T2 construct: expressed in transfected cells; host or cells: CHO-S
T2 sequence (P02706 1-284): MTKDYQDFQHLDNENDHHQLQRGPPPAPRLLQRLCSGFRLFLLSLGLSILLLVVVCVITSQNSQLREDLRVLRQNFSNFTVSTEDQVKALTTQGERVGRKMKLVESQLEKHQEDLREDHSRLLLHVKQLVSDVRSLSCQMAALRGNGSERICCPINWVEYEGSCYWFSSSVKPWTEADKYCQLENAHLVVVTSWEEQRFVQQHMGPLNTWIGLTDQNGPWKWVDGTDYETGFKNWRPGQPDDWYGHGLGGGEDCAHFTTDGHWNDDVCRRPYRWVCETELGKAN

T3: human ASGR1 extracellular domain (ECD) (Homo sapiens, UniProt P07306)
T3 sequence (P07306 62-291 limits assumed): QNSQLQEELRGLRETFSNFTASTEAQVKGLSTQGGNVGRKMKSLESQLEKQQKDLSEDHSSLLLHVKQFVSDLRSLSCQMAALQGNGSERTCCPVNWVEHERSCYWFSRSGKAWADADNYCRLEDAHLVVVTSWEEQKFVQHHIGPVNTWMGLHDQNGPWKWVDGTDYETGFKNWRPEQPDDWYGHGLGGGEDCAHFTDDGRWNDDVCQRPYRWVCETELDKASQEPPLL


Tests used:
rat CLEC10A ECD = biological target: T1, rat CLEC10A ECD; experiment: OCTET avidity binding to immobilized rat CLEC10A ECD; conditions: for Binding signal to rat CLEC10A ECD: in words; for Response, binding to rat CLEC10A ECD: test antibody at 25 μg/mL
Method: Analysis of binding to the rat CLEC10A ECD was performed using the OCTET® Red 96 instrument (ForteBio). His-tagged rat CLEC10A ECD (R&D Systems) was immobilized to OCTET® Penta-His biosensors and subjected to avidity binding of test antibodies in kinetics buffer (PBS+1% BSA+0.2% Tween20+0.9 mM CaCl2) at pH 7.4) in the following steps: (1) hydration of Penta-His biosensors in kinetics buffer (10 min); (2) regeneration and neutralization of Penta-His biosensor in 10 mM glycine-HCl (pH 1.5) and kinetics buffer, respectively in triplicate; (3) baseline acquisition (30 s); (4) immobilization of rat CLEC10A ECD to Penta-His biosensors at a concentration of 10 μg/mL (180 s); (5) second baseline acquisition (60 s); (6) association of test antibody at 25 μg/mL (60 s); (7) dissociation in kinetics buffer (60 s).
The interactions of test mAbs with rat CLEC10A ECD was analyzed using the OCTET® Data Analysis Software 9.0 (ForteBio).

rat ASGR1 = biological target: T2, rat ASGR1; experiment: Cell binding to rat ASGR1 transiently expressed by CHO-S cells (GUAVA); conditions: in words
Method: Anti-human ASGR1 antibodies of this disclosure were examined for cross-reactivity with Cynomolgus macaque and rat ASGR1. Briefly, sequence encoding Cynomolgus macaque or rat ASGR1 was transiently transfected into CHO-S cells. Transfected cells were before performing cell binding assay. A total of about 1.5×10^4 transfected cells/well were added to 96-well V-bottom assay plate, incubated at 37° C., 5% CO2 for 48-72 hours, and then washed with culture medium before adding 100 μl of each ASGR1 antibody at different concentrations starting from 100 nM and 3-fold dilutions to a total of eight wells. The cells with antibody were incubated for 40 minutes at 4° C., then washed three times with 200 μl of fresh culture medium. To each well was added 50 μl PE conjugated goat anti-human Fc (SouthemBiotech) at 1:200 dilution in culture medium and then incubated at 4° C. for 20 minutes. After washing the plate once, the treated cells were resuspended in 200 μl culture medium and then the stained cells were analyzed on GUAVA® using Incyte software.

[1] = biological target: T3, human ASGR1 extracellular domain (ECD); experiment: Effect of calcium on binding to human ASGR1 ECD (OCTET); design: key to Ca^2+ Sensitivity during: Association / Ca^2+ Sensitivity during: Dissociation / Ca^2+ Sensitivity: N = No; Y = Yes
Method: The ability of anti-human ASGR1 antibodies of this disclosure to bind to human ASGR1 in the presence or absence of calcium in binding buffer was examined. Briefly, ASGR1 antibodies were bound to immobilized human ASGR1 extracellular domain (ECD) at saturating levels and subsequently dissociated under three different conditions as follows: (a) binding and dissociation with buffer containing calcium (PBS+1% BSA+0.2% Tween20+0.9 mM CaCl2), pH 7.4); (b) binding with buffer containing calcium and dissociation with buffer lacking calcium; and (c) binding and dissociation with buffer lacking calcium. Analysis of ASGR1 antibody binding to human ASGR1 ECD was performed using the OCTET® Red 96 instrument and analyzed using the OCTET®Data Analysis Software 9.0 (ForteBio). His-tagged human ASGR1 ECD was immobilized to OCTET® Penta-His biosensors and ASGR1 antibodies were subjected to avidity binding under the conditions described above. Association with the ASGR1 ECD was measured by the rate of and increase in magnitude of signal response at a given antibody concentration. Dissociation from the ASGR1 ECD was measured as the rate of loss in signal upon removal of the antibody and further incubation with or without Ca^2+. […] Also tested were humanized antibodies hzH8K-1 and hzL4L-7.
Further analysis of the antibodies of this disclosure was to determine whether the presence of calcium was needed for binding (i.e., during association) of the antibodies to human ASGR1 ECD. […]

[2] = test system: human PBMCs cultured with ASGR1-expressing tumor cell line HepG2; experiment: TNF-α production by human PBMC co-cultured with HepG2 (AlphaLISA); format: cell-based; conditions: PBMC:HepG2 5:1, 24 hours
Method: The effect on TNF-α production by human PBMCs co-cultured with ASGR1 expressing HepG2 tumor cells and in the presence of anti-ASGR1-TLR8 agonist conjugates was examined. An increase in TNF-α production by human PBMCs would indicate that myeloid cells are being activated. Briefly, peripheral blood mononuclear cells (PBMC) were isolated from normal human donor blood using SEPMATE™-50 PBMC Isolation Tubes ([…] Technologies) according to manufacturer's instructions. Isolated PBMC were cultured with the ASGR1-expressing tumor cell line HepG2 or the ASGR1-negative cell line HEK 293 at a 5:1 ratio in the presence of titrated concentrations of anti-ASGR1-TLR8 agonist conjugates (G2D-Compound 2.14, J4F-Compound 2.14, K2E-Compound 2.14, L4L-Compound 2.14, hzL4L-7-Compound 2.14, hzL4L-14-Compound 2.14, H8K-Compound 2.14, hzH8K-1-Compound 2.14, and hzH8K-10-Compound 2.14, as well as control conjugates comprised of ASGR1-mAb-A-Compound 2.14, ASGR1-mAb-B-Compound 2.14, ASGR1-mAb-C-Compound 2.14, anti-digoxin mAb-Compound 2.14, and unconjugated antibody controls). After 24 hours, cell-free supernatants were collected and stored at −80° C. prior to analysis. TNF-α levels in the cell-free supernatants were quantified using the TNF-α (human) AlphaLISA® Detection Kit (Perkin Elmer) according to manufacturer's instructions.

Molecule	Binding signal to rat CLEC10A ECD (rat CLEC10A ECD)	Response, binding to rat CLEC10A ECD (rat CLEC10A ECD)	Cross-reactivity with rat ASGR1 (rat ASGR1)	Ca^2+ Sensitivity [1]	Ca^2+ Sensitivity during: Association [1]	Ca^2+ Sensitivity during: Dissociation [1]	TNF-α production from human PBMCs [2]	Sensitivity to calcium (difference in binding signal after dissociation >±10%) ([1]; in words)
hzH8K-1: "humanized anti-ASGR1 antibodies hzH8K-1 and hzH8K-10 as compared to parent mouse anti-ASGR1 antibody H8K" (antibody, V domains shown, Synthetic sequence hzH8K VH; Synthetic sequence hzH8K VL) VH: QVQLQESGPGLVKPSQTLSLTCTVSGGSISSDYAWNWIRQHPGKGLEWIGYRSYRGSTSYNPSLKSRVTISVDTSKNQFSLKLSSVTAADTAVYYCARRGYYGSSSHWYFDVWGQGTTVTVSS VL: DIQMTQSPSSLSASVGDRVTITCRASENIYSYLAWYQQKPGKAPKLLIYNAKTLAEGVPSRFSGSGSGTDFTLTISSLQPEDFATYYCQHHYGTPLTFGGGTKVEIK	even less above background binding	0.0495 nm	not rat cross-reactive	N	N	N	more efficient at inducing TNF-α production as compared to the parent antibody conjugates	
hzL4L-7: "humanized anti-ASGR1 antibodies hzL4L-7 and hzL4L-14 as compared to parent mouse anti-ASGR1 antibody L4L" (antibody, V domains shown, human IgG1/kappa constant regions; Synthetic sequence hzL4.6L VH G27Y, S70T, V71R; Synthetic sequence hzL4L VL) VH: QVQLQESGPGLVKPSQTLSLTCTVSGYSISSDYAWNWIRQHPGKGLEWIGYISYSGSTRYNPSLKSRVTITRDTSKNQFSLKLSSVTAADTAVYYCARRYRYDEGYGMDYWGQGTTVTVSS VL: DIQMTQSPSSLSASVGDRVTITCRASENIYSNLAWYQQKPGKAPKLLIYAATNLADGVPSRFSGSGSGTDFTLTISSLQPEDFATYYCQHFWGTPPWTFGGGTKVEIK	No observable binding signal	— (Antibodies tested with response of <0.02 nm were below the limit of detection (—))	not rat cross-reactive	N	N	N	more efficient at inducing TNF-α production as compared to the parent antibody conjugates	lacking sensitivity to calcium
